This is an account of results in US20160185837A1 (AstraZeneca / MedImmune, published 2016).

Substitutions are numbered along the chain they refer to.

B1: IP354 (Fc fusion)
chain: YSEGMHTSDFSKLLEEEAVRLFIEWLLAGGGGGGSGGGGSGGGGSGGGGSATHTCPPC
B2: IP357 (Fc fusion)
chain: B1 chain with M5T, H6F, W25F
B3: IP362 (Fc fusion)
chain: B1 chain with M5T, H6F, F10Y, S11M, K12M, L14K
B4: IP361 (Fc fusion)
chain: B1 chain with M5T, H6F, F10Y, S11R, K12I, L14K
B5: IP358 (Fc fusion)
chain: B1 chain with M5T, H6F
B6: IP355 (Fc fusion)
chain: B1 chain with M5T, D9L
B7: IP363 (Fc fusion)
chain: B1 chain with M5T, H6F, F10Y, S11R, K12M, L14K
B8: IP360 (Fc fusion)
chain: B1 chain with M5T, H6F, F10Y, S11R, K12I
B9: IP325 (Fc fusion)
chain: YSEGTFTSDYSKLLEEEAVRLFIEWLVKGPGGGGGSGGGGSGGGGSGGGGSGGGGSGGGGSGGGGSGGGGSA
B10: IP328 (Fc fusion)
chain: B9 chain with V27L, K28A, P30G
B11: IP327 (Fc fusion)
chain: YSEGTFTSDYSKLLEEEAVRLFIEWLLAGGGGGGGSGGGGSGGGGSGGGGSGGGGSGGGGSA
B12: IP326 (Fc fusion)
chain: YSEGTFTSDYSKLLEEEAVRLFIEWLLAGGGGGGGSGGGGSGGGGSGGGGSGGGGSA
B13: IP087 (Fc fusion)
chain: YSEGTFTSDYSKLLEEEAVRLFIEWLLAGPAAAGGSGSTASSGSGSATGGGGAATHTCPPCPAPEF

The first experiment addresses T1, human GIP receptor (human, UniProt P48546 22-466).
T1 sequence (looked up): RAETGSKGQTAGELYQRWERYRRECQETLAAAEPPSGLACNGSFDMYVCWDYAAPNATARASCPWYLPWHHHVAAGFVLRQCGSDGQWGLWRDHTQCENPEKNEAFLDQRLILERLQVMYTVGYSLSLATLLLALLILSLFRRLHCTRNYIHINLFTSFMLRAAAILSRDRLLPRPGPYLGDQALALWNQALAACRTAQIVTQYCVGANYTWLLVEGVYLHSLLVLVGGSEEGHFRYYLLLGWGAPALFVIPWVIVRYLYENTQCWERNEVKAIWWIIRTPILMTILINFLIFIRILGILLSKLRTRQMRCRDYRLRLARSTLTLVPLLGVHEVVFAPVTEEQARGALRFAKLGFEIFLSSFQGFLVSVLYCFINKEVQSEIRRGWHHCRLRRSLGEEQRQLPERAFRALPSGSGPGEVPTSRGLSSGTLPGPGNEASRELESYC
Description: cell-based or functional assay.
In the case of B1, the “cAMP EC50” value was determined as 0.024 nM.
Same read-out and setting: the figure for B2 is 0.014 nM; for B3 it is 0.061 nM; for B4 it is 0.082 nM.
The same measure, in the same setting: the figure for B5 is 0.0094 nM; for B6 it is 0.17 nM; for B7 it is 0.056 nM.
Consider B8, for which the “cAMP EC50” value amounted to 0.016 nM and the “cAMP EC50, hGIPr (C3) line” value was found to be 2.5 nM.
In the case of B9, the “cAMP EC50” value came out at 0.037 nM and the “cAMP EC50, Batch 2” value came to 0.018 nM.
For B10 the same measures were 0.085 nM and 0.033 nM.
As to B11, the “cAMP EC50” value was 0.016 nM.
Still for that read-out and setting: the figure for B12 is 0.027 nM.
Still for that read-out and setting: then B13, with 0.0086 nM.

The target in another experiment is T2, mouse GIP receptor (mouse, UniProt Q0P543 19-460).
T2 sequence (looked up): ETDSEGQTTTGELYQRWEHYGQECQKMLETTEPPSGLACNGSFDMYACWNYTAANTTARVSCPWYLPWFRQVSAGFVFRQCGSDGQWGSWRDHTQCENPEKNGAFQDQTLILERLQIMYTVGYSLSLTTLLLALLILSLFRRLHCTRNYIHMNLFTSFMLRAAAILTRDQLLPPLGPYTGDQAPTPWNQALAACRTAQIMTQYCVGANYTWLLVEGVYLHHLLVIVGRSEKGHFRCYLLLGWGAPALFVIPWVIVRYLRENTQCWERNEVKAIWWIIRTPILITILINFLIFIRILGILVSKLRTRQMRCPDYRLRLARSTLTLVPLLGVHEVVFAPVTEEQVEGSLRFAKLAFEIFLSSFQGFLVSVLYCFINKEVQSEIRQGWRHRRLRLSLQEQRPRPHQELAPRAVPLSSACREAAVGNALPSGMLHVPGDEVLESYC
Description: cell-based or functional assay.
B1: the “cAMP EC50” value was 270 nM.
The same measure, in the same setting: the figure for B2 is 16 nM; for B3 it is 1.1 nM; for B4 it is 0.19 nM.
The same measure, in the same setting: then B5, with 12 nM.
Still for that read-out and setting: then B6, with 17 nM.
As for B7, the “cAMP EC50” value is 0.31 nM.
Same read-out and setting: the figure for B8 is 0.36 nM.
On to B9, for which the “cAMP EC50” value came out at 170 nM and the “cAMP EC50, Batch 2” value is 57.2 nM.
On the same counts, the results for B10 are 5.4 nM and 2.2 nM.
B11: the “cAMP EC50” value was determined as 1.2 nM.
The same measure, in the same setting: the figure for B12 is 1.7 nM.
The same measure, in the same setting: the figure for B13 is 5.7 nM.

For the next experiment, the target named is human glucagon receptor (human, UniProt P47871 26-477). Briefly: cell-based or functional assay.
B1: the “cAMP EC50” value is more than 7370 nM.
In the case of B2, the “cAMP EC50” value was 110 nM.
Still for that read-out and setting: the figure for B3 is more than 4960 nM; for B4 it is more than 6200 nM; for B5 it is 140 nM.
B6: the “cAMP EC50” value was more than 527 nM.
Consider B7, for which the “cAMP EC50” value stood at 560 nM.
Regarding B8, the “cAMP EC50” value worked out at 63 nM.
For the molecule B9, the “cAMP EC50” value is more than 455 nM and the “cAMP EC50, Batch 2” value worked out at 110 nM.
As to B10, the “cAMP EC50” value stood at 43 nM and the “cAMP EC50, Batch 2” value stood at 13 nM.
On to B11, for which the “cAMP EC50” value came out at 10 nM.
Same read-out and setting: then B12, with 15 nM; and B13, with 9.6 nM.

A further experiment deals with human GLP-1 receptor (human, UniProt P43220 24-463). Briefly: cell-based or functional assay.
Take B1: the “cAMP EC50” value was found to be 1.4 nM.
On the same count and under the same terms, the figure for B2 is 0.27 nM; for B3 it is 1.7 nM.
In the case of B4, the “cAMP EC50” value worked out at 3.4 nM.
On the same count and under the same terms, then B5, with 0.24 nM; and B6, with 8.8 nM.
Same read-out and setting: the figure for B7 is 0.98 nM.
Still for that read-out and setting: the figure for B8 is 0.31 nM.
As to B9, the “cAMP EC50” value was 0.46 nM and the “cAMP EC50, Batch 2” value amounted to 0.16 nM.
On the same counts, the results for B10 are 1.2 nM and 0.33 nM.
With B11, the “cAMP EC50” value stood at 0.25 nM.
B12: the “cAMP EC50” value is 0.37 nM.
On the same count and under the same terms, then B13, with 0.28 nM.

The target of the next experiment is T3, mouse GLP-1 receptor (mouse, UniProt O35659 22-463).
T3 sequence (looked up): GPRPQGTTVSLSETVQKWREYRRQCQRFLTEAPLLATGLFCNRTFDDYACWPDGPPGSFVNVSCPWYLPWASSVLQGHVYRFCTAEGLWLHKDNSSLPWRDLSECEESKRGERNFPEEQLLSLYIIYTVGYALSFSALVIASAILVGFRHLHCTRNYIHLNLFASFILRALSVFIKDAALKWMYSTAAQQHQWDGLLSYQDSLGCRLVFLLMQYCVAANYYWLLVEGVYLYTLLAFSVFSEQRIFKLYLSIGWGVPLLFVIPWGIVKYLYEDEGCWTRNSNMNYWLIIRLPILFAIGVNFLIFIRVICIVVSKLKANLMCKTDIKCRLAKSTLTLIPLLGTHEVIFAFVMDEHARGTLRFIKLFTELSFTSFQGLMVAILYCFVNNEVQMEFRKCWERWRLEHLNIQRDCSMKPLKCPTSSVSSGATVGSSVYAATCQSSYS
Briefly: cell-based or functional assay.
Take B1: the “cAMP EC50” value came to 13 nM.
On the same count and under the same terms, then B2, with 1.1 nM; and B3, with 11 nM.
For the molecule B4, the “cAMP EC50” value was found to be 170 nM.
Same read-out and setting: then B5, with 1.1 nM; and B6, with 220 nM; and B7, with 11 nM.
The same measure, in the same setting: then B8, with 1.2 nM.
Regarding B9, the “cAMP EC50” value came out at 0.64 nM and the “cAMP EC50, Batch 2” value turned out to be 0.488 nM.
For B10 the same measures were 3.9 nM and 1.3 nM.
B11: the “cAMP EC50” value amounted to 0.7 nM.
Same read-out and setting: then B12, with 0.87 nM; and B13, with 1.2 nM.

The target in another experiment is T4, rat GLP-1 receptor (rat, UniProt P32301 22-463).
T4 sequence (looked up): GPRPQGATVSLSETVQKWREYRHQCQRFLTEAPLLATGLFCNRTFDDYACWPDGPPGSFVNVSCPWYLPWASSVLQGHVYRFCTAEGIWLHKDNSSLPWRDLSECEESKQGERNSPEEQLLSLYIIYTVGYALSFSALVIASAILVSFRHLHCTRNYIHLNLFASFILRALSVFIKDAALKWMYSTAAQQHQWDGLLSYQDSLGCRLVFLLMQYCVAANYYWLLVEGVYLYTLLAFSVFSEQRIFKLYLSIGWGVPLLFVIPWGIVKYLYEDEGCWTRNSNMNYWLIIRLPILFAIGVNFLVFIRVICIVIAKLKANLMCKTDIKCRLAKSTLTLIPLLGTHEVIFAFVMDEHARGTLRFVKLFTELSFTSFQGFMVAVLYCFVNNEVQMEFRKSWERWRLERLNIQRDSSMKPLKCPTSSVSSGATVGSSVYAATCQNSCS
Briefly: cell-based or functional assay.
Take B1: the “cAMP EC50” value turned out to be 3.6 nM.
Still for that read-out and setting: the figure for B2 is 0.13 nM; for B3 it is 1.1 nM.
For the molecule B4, the “cAMP EC50” value came to 18 nM.
Same read-out and setting: the figure for B5 is 0.15 nM; for B6 it is 20 nM.
The same measure, in the same setting: then B7, with 1.4 nM.
The same measure, in the same setting: then B8, with 0.15 nM.
In the case of B9, the “cAMP EC50” value was 0.035 nM and the “cAMP EC50, Batch 2” value was 0.0519 nM.
In the case of B10, the “cAMP EC50” value was 0.21 nM and the “cAMP EC50, Batch 2” value came to 0.12 nM.
Consider B11, for which the “cAMP EC50” value worked out at 0.032 nM.
B12: the “cAMP EC50” value is 0.039 nM.
Same read-out and setting: then B13, with 0.11 nM.

A further experiment addresses T5, rat GIP receptor (rat, UniProt P43219 19-455).
T5 sequence (looked up): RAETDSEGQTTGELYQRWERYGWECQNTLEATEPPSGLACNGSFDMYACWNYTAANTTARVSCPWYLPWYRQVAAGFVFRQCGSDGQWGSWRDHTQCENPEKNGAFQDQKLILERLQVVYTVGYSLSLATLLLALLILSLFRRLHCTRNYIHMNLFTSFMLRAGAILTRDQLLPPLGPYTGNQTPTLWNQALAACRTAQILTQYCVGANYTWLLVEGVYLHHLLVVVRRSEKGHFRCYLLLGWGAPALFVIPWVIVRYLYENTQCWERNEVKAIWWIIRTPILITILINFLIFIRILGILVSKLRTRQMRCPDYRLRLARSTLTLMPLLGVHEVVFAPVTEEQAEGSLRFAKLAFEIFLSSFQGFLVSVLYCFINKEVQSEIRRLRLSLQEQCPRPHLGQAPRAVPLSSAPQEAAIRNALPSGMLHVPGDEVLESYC
Description: cell-based or functional assay.
Take B1: the “cAMP EC50” value came to 0.74 nM.
Still for that read-out and setting: then B2, with 0.067 nM; and B3, with 0.083 nM.
Still for that read-out and setting: the figure for B4 is 0.038 nM; for B5 it is 0.049 nM; for B6 it is 0.5 nM.
On the same count and under the same terms, then B7, with 0.045 nM; and B8, with 0.033 nM.
As for B9, the “cAMP EC50” value was determined as 0.13 nM and the “cAMP EC50, Batch 2” value came out at 0.154 nM.
As for B10, the “cAMP EC50” value stood at 0.17 nM and the “cAMP EC50, Batch 2” value came out at 0.092 nM.
Take B11: the “cAMP EC50” value came to 0.028 nM.
On the same count and under the same terms, the figure for B12 is 0.037 nM; for B13 it is 0.17 nM.
